To fix the notation:
T1: polyclonal human IgE (human)
T1 construct: Used at 10 nM to sensitise Hoxb8 mast cells overnight; also called surface IgE on Hoxb8 mast cells
T1 constant: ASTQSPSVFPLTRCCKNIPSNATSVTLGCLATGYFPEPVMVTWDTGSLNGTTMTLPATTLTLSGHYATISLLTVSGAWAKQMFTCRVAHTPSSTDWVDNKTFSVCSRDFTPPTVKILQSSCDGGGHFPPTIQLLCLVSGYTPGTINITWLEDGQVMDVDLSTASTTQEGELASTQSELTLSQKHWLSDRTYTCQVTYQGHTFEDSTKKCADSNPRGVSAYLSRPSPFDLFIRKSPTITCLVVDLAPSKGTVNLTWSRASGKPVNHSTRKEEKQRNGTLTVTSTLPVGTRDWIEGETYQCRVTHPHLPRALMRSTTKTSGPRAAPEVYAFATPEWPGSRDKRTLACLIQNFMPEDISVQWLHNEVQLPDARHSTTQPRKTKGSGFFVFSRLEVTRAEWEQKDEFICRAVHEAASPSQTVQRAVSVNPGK

B1: C6 (antibody, human IgG1, kappa)
heavy: not shown
light: DIQLTQSPSSLSASVGDRVTITCRASKSVDADGDSYMNWYQAKPGRHPKLLIYAASYLESGVPSRFSGSGSGTDFTLTISSLQPEDFATYYCQQSHEDPYTFGQGTKVEIKRTVAAPSVFIFPPSDEQLKSGTASVVCLLNNFYPREAKVQWKVDNALQSGNSQESVTEQDSKDSTYSLSSTLTLSKADYEKHKVYACEVTHQGLSSPVTKSFNRGEC
notes: Whole IgG, comparator; also called Comparator 6; Comparator_6
B2: C4 (antibody, human IgG1, kappa)
heavy: not shown
light: DIQLTQSPSSLSASVGDRVTITCRASKSVDADGDSYMNWYQAKPGRHPKLLIYAASYLESGVPSRFSGSGSGTDFTLTISSLQPEDFATYYCQQSHEDPYTFGQGTKVEIKGGRTVAAPSVFIFPPSDEQLKSGTASVVCLLNNFYPREAKVQWKVDNALQSGNSQESVTEQDSKDSTYSLSSTLTLSKADYEKHKVYACEVTHQGLSSPVTKSFNRGEC
notes: Whole IgG, comparator; also called Comparator 4; Comparator_4
B3: C5 (antibody, human IgG1, kappa)
heavy: not shown
light: DIQLTQSPSSLSASVGDRVTITCRASKSVDADGDSYMNWYQAKPGRHPKLLIYAASYLESGVPSRFSGSGSGTDFTLTISSLQPEDFATYYCQQSHEDPYTFGQGTKVEIKGRTVAAPSVFIFPPSDEQLKSGTASVVCLLNNFYPREAKVQWKVDNALQSGNSQESVTEQDSKDSTYSLSSTLTLSKADYEKHKVYACEVTHQGLSSPVTKSFNRGEC
notes: Whole IgG, comparator; also called Comparator 5; Comparator_5

The target in this assay is T1, polyclonal human IgE. The assay can be described thus: flow cytometry of surface IgE on Hoxb8 mast cells with human FcεRI, 20 h; dissociation of IgE from FcεRI. For orientation: Flow cytometry measures light scatter and fluorescence of single cells or particles in a stream.
As a reminder, the IC50 is the concentration that gives 50% inhibition. A lower IC50 goes with inhibition by little substance. In turn, B1 registered an IC50 of 2010 nM. In other words, the single-digit micromolar range. In the case of B2, half-maximal inhibition (IC50) was put at 815 nM. B3 displayed an IC50 of 1070 nM. This IC50 and that of the molecule before are within 1.5-fold of each other.

(Values after patent US20250353930A1 (EXCELLERGY, published 2025).)
